In general, Kd refers to the free concentration of one partner at which half of the binding sites on the other are occupied at equilibrium, for simple one-to-one binding. Broadly, the koff is a measure of how fast the partners let go of each other. A word on the kon: it is the rate constant with which the complex forms.

Results on twelve molecules are retold here after patent US20220177594A1 (ZOETIS SERVICES, published 2022).

Substitutions are numbered along the chain they refer to.

The labels stand for the following.
B1: Mu_02D09_VH (SEQ ID NO: 31)_D99A (antibody, V domains shown)
VH: EVQLVESGGGLVKPGGSLTLSCAASGFTFSDYGMHWLRQAPEKGLEWVAYISSGSRAVFFADTVKGRFTISRDNAKNTLFLQMTSLRSDDTAMYYCARARYDGRGFAYWGQGTLVTVSA
VL: DIVLTQSPATLSVTPGDSVSLSCRASQSISNNLHWYQQTSHESPRLLITYASQSISGIPSRFSGSGSGTDFTLSINSVETEDFGMYFCQQSNSWPLTFGAGTKLELKR
B2: Mu_02D09_VH (SEQ ID NO: 31)_R104A (antibody, V domains shown)
VH: B1 VH with A99D, R104A
VL: B1 VL
B3: Mu_02D09_VL (SEQ ID NO: 33)_I29A (antibody, V domains shown)
VH: B1 VH with A99D
VL: B1 VL with I29A
B4: Mu_02D09_VL (SEQ ID NO: 33)_S56A (antibody, V domains shown)
VH: B1 VH with A99D
VL: B1 VL with S56A
B5: Mu_02D09_VH (SEQ ID NO: 31)_D102A (antibody, V domains shown)
VH: B1 VH with A99D, D102A
VL: B1 VL
B6: Mu_02D09_VH (SEQ ID NO: 31)_Y101A (antibody, V domains shown)
VH: B1 VH with A99D, Y101A
VL: B1 VL
B7: Mu_02D09_VL (SEQ ID NO: 33)_L96A (antibody, V domains shown)
VH: B1 VH with A99D
VL: B1 VL with L96A
B8: Mu_02D09_VL (SEQ ID NO: 33)_W94A (antibody, V domains shown)
VH: B1 VH with A99D
VL: B1 VL with W94A
B9: Mu_02D09_VL (SEQ ID NO: 33)_Q27A (antibody, V domains shown)
VH: B1 VH with A99D
VL: B1 VL with Q27A
B10: Mu_09E09_VH (SEQ ID NO: 35)_S35A (antibody, V domains shown)
VH: DVKLVESGEGLVKPGGSLKLSCAASGFTFSSYAMAWVRQTPEKRLEWVAYISSGGDYIYYADTVKGRFTISRDNARNTLYLQMSSLKSEDTAMYYCTRDPITGTFAYWGQGTLVTVSA
VL: DLQMTQTTSSLSASLGDRVTISCRASQDINNYLNWYQQKPDGTVKLLIYYTSTLHSGVPSRFSGSGSGTDYSLTISNLEQEDIATYFCQQGNTLPWTFGGGTKLEIKR
B11: Mu_09E09_VH (SEQ ID NO: 35)_Y57A (antibody, V domains shown)
VH: B10 VH with A35S, Y57A
VL: B10 VL
B12: Mu_09E09_VH (SEQ ID NO: 35)_Y50A (antibody, V domains shown)
VH: B10 VH with A35S, Y50A
VL: B10 VL

The test concerns the target T1, ANTIBODY EXPRESSION CONTROL.
T1 construct: also called mouse anti-canine antibody (capture reagent of the expression control ELISA)
Nature of the test: SPR Biacore, expression control. As for the experimental part:
The affinity with which candidate mAbs bind canine, feline, and human (SEQ ID NO: 122; Human_OSMR) (R&D Systems, Minneapolis, Minn.) OSMR was determined using surface plasmon resonance (SPR) on a Biacore system (Biacore Life Sciences (GE Healthcare), Uppsala, Sweden). To avoid affinity differences associated with differential surface preparation that can occur when immobilizing antibodies to surfaces; OSMR from each species was directly conjugated to individual surfaces. Immobilization was obtained by amine coupling 5 μg/mL OSMR using N-hydroxysuccinimide (NHS)/1-Ethyl-3-(3-dimethylaminopropyl) carbodiimide (EDC) chemistry. Chips were quenched with ethanolamine and the affinity with which all candidate mAbs bound to the immobilized OSMR was evaluated. All curves were fit to a 1:1 model. […] Results for affinity measurements are described herein.
Data from an ELISA represents an equilibrium state where the antibody is allowed to associate and dissociate over a one-hour period resulting in steady-state binding. Using Biacore, the target protein is immobilized to a surface and the antibody is passed over this surface in a mobile liquid phase. Protein-protein interaction is determined from changes in the surface resonance which allows for calculation of association (kₐ), disassociation (kd), and affinity constant (KD). While not wishing to be bound to one hypothesis we present data from ELISA and Biacore experiments, using the same preparation of antibody, that may result in agreement between the two methods with respect to binding but also may show contradictory results due to the nature of the binding kinetics and different assay dynamics. The data presented in Table A (in combination with experimental results from yeast display mutational analysis in Example 21) allow for the definition of a structure:function relationship to be defined between the anti-OSMR antibodies described here and their ability to bind and block IL-31 and OSM-mediated signaling through the OSMR receptor.
A general note: In SPR one partner is held on a chip, and binding of the other changes the refractive index at the surface.
For B1, the Kd is 1.63 nM, the koff is 0.000384 s⁻¹ and the kon turned out to be 235000 M⁻¹ s⁻¹.
Turning to B2, the Kd turned out to be 0.229 nM, the koff was found to be 2.41e-05 s⁻¹ and the kon stood at 105000 M⁻¹ s⁻¹.
For B3, in that order: 0.714 nM, 9.47e-05 s⁻¹ and 133000 M⁻¹ s⁻¹.
Turning to B4, the Kd came to 0.844 nM, the koff is 0.000111 s⁻¹ and the kon is 132000 M⁻¹ s⁻¹.
On to B5, for which the Kd worked out at 0.547 nM, the koff turned out to be 7.4e-05 s⁻¹ and the kon was 135000 M⁻¹ s⁻¹.
In the case of B6, the Kd stood at 0.28 nM, the koff was 4.11e-05 s⁻¹ and the kon was 147000 M⁻¹ s⁻¹.
As to B7, the Kd was found to be 0.0659 nM, the koff came out at 2.43e-05 s⁻¹ and the on-rate constant (kon) was found to be 370000 M⁻¹ s⁻¹.
For B8, in that order: 0.0977 nM, 3.16e-05 s⁻¹ and 323000 M⁻¹ s⁻¹.
B9: the Kd worked out at 1.2 nM, the koff is 0.00019 s⁻¹ and the on-rate (kon) came out at 158000 M⁻¹ s⁻¹.
B10: the Kd came to 0.18 nM, the koff is 5.34e-05 s⁻¹ and the kon amounted to 297000 M⁻¹ s⁻¹.
The matching figures for B11: 0.208 nM, 6.34e-05 s⁻¹ and 305000 M⁻¹ s⁻¹.
For B12, in that order: 0.179 nM, 5.4e-05 s⁻¹ and 301000 M⁻¹ s⁻¹.
